Data taken from paper PMC12117036.

Biological target: rhodamine-labeled rabbit skeletal muscle actin (rabbit) (UniProt P68135)

Chain of espin (ectoplasmic specialization protein), recombinant protein (B1AK53 whole entry): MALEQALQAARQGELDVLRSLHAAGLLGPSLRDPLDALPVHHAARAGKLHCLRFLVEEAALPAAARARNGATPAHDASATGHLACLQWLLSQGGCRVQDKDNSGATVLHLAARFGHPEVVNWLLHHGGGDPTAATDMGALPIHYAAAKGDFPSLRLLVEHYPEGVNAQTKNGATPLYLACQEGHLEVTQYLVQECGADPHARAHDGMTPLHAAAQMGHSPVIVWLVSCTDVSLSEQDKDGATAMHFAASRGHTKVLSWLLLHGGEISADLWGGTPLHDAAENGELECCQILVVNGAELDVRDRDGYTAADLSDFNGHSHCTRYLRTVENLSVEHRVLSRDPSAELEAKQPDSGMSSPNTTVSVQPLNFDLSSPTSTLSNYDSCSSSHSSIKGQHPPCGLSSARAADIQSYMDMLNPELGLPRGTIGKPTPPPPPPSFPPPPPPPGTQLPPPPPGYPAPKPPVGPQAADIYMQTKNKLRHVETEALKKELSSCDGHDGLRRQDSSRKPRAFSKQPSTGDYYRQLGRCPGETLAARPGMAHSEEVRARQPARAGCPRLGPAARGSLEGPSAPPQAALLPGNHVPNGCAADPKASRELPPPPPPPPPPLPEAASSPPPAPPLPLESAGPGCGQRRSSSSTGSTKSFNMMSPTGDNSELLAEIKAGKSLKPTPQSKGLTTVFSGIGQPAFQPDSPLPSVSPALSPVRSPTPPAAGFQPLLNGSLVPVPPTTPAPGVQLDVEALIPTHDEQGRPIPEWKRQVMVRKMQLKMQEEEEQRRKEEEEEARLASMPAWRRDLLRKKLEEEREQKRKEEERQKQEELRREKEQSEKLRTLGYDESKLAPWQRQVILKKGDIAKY

## espin (ectoplasmic specialization protein), recombinant protein (from UniProt B1AK53 1-854) (natural protein)
  minimum concentration of purified espin at which bundling of pre-polymerized rhodamine-actin filaments (3 uM) was seen by confocal imaging (Fig. 4L): 100 nM
